Biological target: His-tagged RBD of SARS-CoV-2 (SARS-CoV-2, UniProt P0DTC2)
Test: SPR

Binder	binding result
REG10987 (antibody, V domains shown) VH: QVQLVESGGGVVQPGRSLRLSCAASGFTFSNYAMYWVRQAPGKGLEWVAVISYDGSNKYYADSVKGRFTISRDNSKNTLYLQMNSLRTEDTAVYYCASGSDYGDYLLVYWGQGTLVTVSS VL: QSALTQPASVSGSPGQSITISCTGTSSDVGGYNYVSWYQQHPGKAPKLMIYDVSKRPSGVSNRFSGSKSGNTASLTISGLQSEDEADYYCNSLTSISTWVFGGGTKLTVL	binds
REG10933 (antibody, V domains shown) VH: QVQLVESGGGLVKPGGSLRLSCAASGFTFSDYYMSWIRQAPGKGLEWVSYITYSGSTIYYADSVKGRFTISRDNAKSSLYLQMNSLRAEDTAVYYCARDRGTTMVPFDYWGQGTLVTVSS VL: DIQMTQSPSSLSASVGDRVTITCQASQDITNYLNWYQQKPGKAPKLLIYAASNLETGVPSRFSGSGSGTDFTFTISGLQPEDIATYYCQQYDNLPLTFGGGTKVEIK	binds

— PMC8944172 (Antiviral Research, 2022)
